Results on 83 variants are retold here after the RNAGym collection of RNA variant scans (doi:10.1073/pnas.2313332121).

B1: TPR t1 (parent)
chain: GACCAAUCUGCCCUCAGAGCUCGAGAACAUCUUCGGAUGCAGAGGAGGCAGGCUUCGGUGGCGCGAUAGCGCCAACGUCCUCAACCUCCAAUGCAUCCCACCACAUGAUGAUGCCUGAAGAGCCUUGGUUUUUUG

In the series the parent is B1. The series can be described thus: polymerase ribozyme fitness, log enrichment relative to wild type (log ratio); higher = more active; in vitro selection for triplet polymerase activity. In a few lines:
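Libraries of mutants in each subunit of a heterodimeric triplet polymerase ribozyme were generated by PCR and transcribed. In triplicate, each went through one in vitro selection round: annealing with biotinylated primer, partner subunit and triplets; frozen incubation at −7 °C; gel excision of extended constructs; streptavidin-bead capture; RT-PCR. Fitness, taken from Illumina sequencing of input and output libraries, is the logarithm of a genotype's enrichment over wild-type enrichment, averaged across replicates with inverse-variance weights. The logarithm is base 2, and genotypes needed ≥10 input reads and ≥1 read per output to be kept.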
As to C73G A108C A118U C123G, the “polymerase ribozyme fitness (log ratio)” value was -4.86.
Regarding C73A A90U, the “polymerase ribozyme fitness (log ratio)” value is -3.12.
C72G C102A A105C: the “polymerase ribozyme fitness (log ratio)” value was -5.78.
As for C73A U109G, the “polymerase ribozyme fitness (log ratio)” value is -4.56.
Turning to C73A C89U G110C, the “polymerase ribozyme fitness (log ratio)” value was -5.15.
Consider C72U C85A, for which the “polymerase ribozyme fitness (log ratio)” value is -1.82.
The value for C73G A91G was -2.69; that for C72G G113C U129A was -4.04; that for C72U A111C A121U G128A was -1.12.
In the case of C73U U92G, the “polymerase ribozyme fitness (log ratio)” value was -2.88.
As for C72G U81C, the “polymerase ribozyme fitness (log ratio)” value was -1.12.
The value for C72G U81A was -2.98.
As to C73G A95C, the “polymerase ribozyme fitness (log ratio)” value was -2.83.
The result for C73U U87C C88U A111G C123A reads -2.06; that for C73G U112A G117U, -2.94; that for C73A C97A, -4.87.
For C73A C115U, the “polymerase ribozyme fitness (log ratio)” value is -1.36.
For C73A C115G, the “polymerase ribozyme fitness (log ratio)” value is -2.61.
The result for C73A U131G reads -0.242; that for C72U C115G, -2.33; that for C72U C115U, -0.526.
For C72U U78C, the “polymerase ribozyme fitness (log ratio)” value was -0.528.
C73G U78A C94A U125G: the “polymerase ribozyme fitness (log ratio)” value is -1.59.
As for C72G G113A, the “polymerase ribozyme fitness (log ratio)” value was -1.71.
Take C72G G113C: the “polymerase ribozyme fitness (log ratio)” value is -2.87.
Regarding C72G G120U, the “polymerase ribozyme fitness (log ratio)” value was found to be 0.278.
Take C72G G120A: the “polymerase ribozyme fitness (log ratio)” value was 0.223.
As for C72G G120C, the “polymerase ribozyme fitness (log ratio)” value was 0.587.
The value for C73U A119G C123G was 2.02; that for C73G A121C G122A was 0.495.
For the variant C72U U106A, the “polymerase ribozyme fitness (log ratio)” value was found to be 0.0802.
C73A G107A: the “polymerase ribozyme fitness (log ratio)” value is -5.21.
As to C73A C99U, the “polymerase ribozyme fitness (log ratio)” value was -2.77.
Regarding C72G U106G, the “polymerase ribozyme fitness (log ratio)” value was -1.97.
The value for C72G U106C was -0.865.
With C72G G127U, the “polymerase ribozyme fitness (log ratio)” value was -1.1.
The result for C73U C102A U131A reads -1.19; that for C73G C124U, 0.25.
Regarding C72U C80A U87C, the “polymerase ribozyme fitness (log ratio)” value was -3.67.
The result for C72G C101A U125G reads -1.8.
Consider C72G G77A G120A, for which the “polymerase ribozyme fitness (log ratio)” value is -1.96.
As to C73U C94U U129A, the “polymerase ribozyme fitness (log ratio)” value is -1.17.
Take C72U C102A G120U: the “polymerase ribozyme fitness (log ratio)” value is -2.07.
As for C73U C86G, the “polymerase ribozyme fitness (log ratio)” value was -2.49.
C73U C86U: the “polymerase ribozyme fitness (log ratio)” value was 0.0966.
For C73U A95C, the “polymerase ribozyme fitness (log ratio)” value is -1.16.
Turning to C72U U87G C104A, the “polymerase ribozyme fitness (log ratio)” value is -0.492.
C72U A84C: the “polymerase ribozyme fitness (log ratio)” value came out at 0.0877.
As for C72U A84G, the “polymerase ribozyme fitness (log ratio)” value was -1.74.
Take C72U C94G G110C: the “polymerase ribozyme fitness (log ratio)” value is -5.81.
On to C73G G117U, for which the “polymerase ribozyme fitness (log ratio)” value is -3.09.
The value for C73G G117A was -0.876; that for C73G G117C was -3.91.
As for C73U C99A C115A U125G, the “polymerase ribozyme fitness (log ratio)” value was -6.08.
In the case of C73G G127U, the “polymerase ribozyme fitness (log ratio)” value was -1.75.
On to C72G U81C U87C A100U, for which the “polymerase ribozyme fitness (log ratio)” value was -2.07.
C72G U78C C79A G128C: the “polymerase ribozyme fitness (log ratio)” value is -4.09.
The result for C73A G120C reads 1.81; that for C72G C89A A90U, -2.32; that for C72G U87C C99U C115G, -5.69.
With C72U G135U, the “polymerase ribozyme fitness (log ratio)” value was -1.38.
Take C73U C98U: the “polymerase ribozyme fitness (log ratio)” value was -0.593.
In the case of C73G G120U, the “polymerase ribozyme fitness (log ratio)” value was -0.78.
In the case of C72U U112G, the “polymerase ribozyme fitness (log ratio)” value worked out at 0.605.
The result for C73A C101G reads -1.26; that for C73A C101U, 0.2.
As to C72G C114G U130G U133A, the “polymerase ribozyme fitness (log ratio)” value is -3.37.
For the variant C72G C98A C101U G110U G120U C123G U130G, the “polymerase ribozyme fitness (log ratio)” value is -6.41.
With C72G U106G G110U A121U U126A G127A, the “polymerase ribozyme fitness (log ratio)” value is -5.78.
Take C72U C102A C123G: the “polymerase ribozyme fitness (log ratio)” value was -0.477.
Turning to C73U C94U, the “polymerase ribozyme fitness (log ratio)” value is -0.847.
As for C72U C104A, the “polymerase ribozyme fitness (log ratio)” value was -2.05.
For C72U U116G, the “polymerase ribozyme fitness (log ratio)” value was -2.57.
For the variant C72U U116C, the “polymerase ribozyme fitness (log ratio)” value was -0.368.
Take C73A G117C: the “polymerase ribozyme fitness (log ratio)” value is -2.37.
Turning to C72U C73A A83U U109A, the “polymerase ribozyme fitness (log ratio)” value was -5.82.
Turning to C73A C94U, the “polymerase ribozyme fitness (log ratio)” value was found to be 0.44.
The value for C73U A95C U130A was -1.26; that for C72U A83C C114U was -1.96.
As for C72U C97U G120A G122A, the “polymerase ribozyme fitness (log ratio)” value is -1.22.
Regarding C72U G113A U126A, the “polymerase ribozyme fitness (log ratio)” value was -2.61.
The result for C72G U78C G113A reads -1.93; that for C72U G117A, -1.29.
